Test results from the supplement of paper PMC10126150.
± gives the standard deviation of the averaged measurements.

Test system: ATP
Assay: switch fluorescence ratio, 500 uM ATP over buffer (Cy3 cluster intensity, sum of 5 cycles each) (fold (ratio)); higher = stronger signal-on switching upon ATP binding; sequences stand for … in TCGTCGGCAGCGTCAGATGTGTATAAGAGACAGTTTTTTTTTTTTTTTTTTTTTTTTT…TC
Details: aptamer strand: ATP DNA aptamer (quencher-CACCTGGGGGAGTATTGCGGAGGAAGG + anchor), 100 nM annealed; ATP concentration: 500 uM
Summary of the method: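 Cy3-labelled switching-strand clusters on a modified Illumina MiSeq flow-cell were annealed to 100 nM quencher-labelled ATP aptamer and imaged first in selection buffer, then after 15 min with 500 uM ATP at 22 °C. NaOH stripping and re-annealing separated each of five buffer/ATP cycles, and clusters outside 100-1000 RFU were excluded. The fluorescence ratio sums target-cycle Cy3 intensity over buffer-cycle Cy3 intensity per cluster and averages it per switch-domain sequence.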
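Also: ATP exposure 15 min at 22 °C before imaging.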

Row | Sequence | switch fluorescence ratio
1 | GTCGGAGTCA | 1 ± 0.034
2 | GATTATTGCT | 0.988 ± 0.037
3 | ACTGAATGCT | 0.973 ± 0.049
4 | TACTGGAGTA | 1.01 ± 0.018
5 | CGGGCGCAGT | 1.02 ± 0.043
6 | TGCGTAGAGG | 1.037 ± 0.006
7 | TTAACGATGA | 1.01 ± 0.044
8 | TTATTGGAGG | 0.9918 ± 0.0077
9 | GATCAAGGGG | 0.9939 ± 0.0078
10 | TTAAACCTGG | 1.08 ± 0.032
11 | TTTCAATCAT | 0.983 ± 0.038
12 | GGATAATGAG | 0.961 ± 0.028
13 | GGAGTTGGAT | 0.98205 ± 0.00015
14 | TGAAGCAAAT | 1.77 ± 0.075
15 | GTGGTAGGCG | 0.975 ± 0.014
16 | GGCTGATGCA | 0.938 ± 0.034
17 | GAGGAACGTG | 0.967 ± 0.014
18 | TGGATCATTT | 0.999 ± 0.022
19 | GGGGCCGTTG | 0.949 ± 0.012
20 | AGGATTCGGT | 1.01 ± 0.027
21 | AGTTCATTT | 0.999 ± 0.019
22 | ATAGGAATTT | 0.993 ± 0.021
23 | AAGTTTTATG | 1.03 ± 0.059
24 | TATTCATTAA | 0.969 ± 0.011
25 | TCGGTTTGCA | 0.997 ± 0.018

Row | Sequence | switch fluorescence ratio
26 | TTTTTATAGG | 1.008 ± 0.0041
27 | AGGAAAGAAT | 0.968 ± 0.056
28 | CGTGTTGGAG | 0.969 ± 0.011
29 | GACAGCCCAG | 1 ± 0.019
30 | CCATTTACGT | 1.04 ± 0.025
31 | TATGGGTAGC | 0.986 ± 0.019
32 | ATGGGGTGCT | 0.986 ± 0.035
33 | TCGGGCTGGG | 1.03 ± 0.0069
34 | GGGCAAAAAA | 1.03 ± 0.073
35 | TATTGCTAGG | 0.9582 ± 0.0063
36 | TTAGCGAGGA | 1.03 ± 0.046
37 | GGTTGCTCGT | 1.008 ± 0.0092
38 | TGGGACTCGA | 0.991 ± 0.035
39 | TCTAAAGCTG | 1 ± 0.023
40 | ATCATGACTG | 1.015 ± 0.005
41 | GATGCTTGTG | 0.978 ± 0.011
42 | ACAATGTCGG | 0.998 ± 0.011
43 | GCTGCAGGGT | 0.9922 ± 0.009
44 | AGAGGGCGTC | 1.04 ± 0.046
45 | TACTTGGACT | 1.06 ± 0.018
46 | ATTTTAAAGG | 0.977 ± 0.027
47 | AAGCGGTCGC | 0.99 ± 0.017
48 | TAGGCGTAGG | 0.9876 ± 0.0018
49 | CGGTAGAGGG | 0.982 ± 0.037
50 | GTAGAAAGTT | 0.984 ± 0.0028

Row | Sequence | switch fluorescence ratio
51 | CTGTGGAAAG | 0.991 ± 0.018
52 | GGAAAAGTTT | 0.986 ± 0.04
53 | ACTTGACGTG | 1.01 ± 0.059
54 | ACGACTGAAG | 1.014 ± 0.0015
55 | AAAATCGGGA | 1 ± 0.035
56 | TTCATACGGG | 1.03 ± 0.04
57 | TGGGTTTACG | 1.03 ± 0.029
58 | TGGGATGCTT | 0.981 ± 0.011
59 | GTTGGGACGA | 1 ± 0.015
60 | GGATAAAATT | 0.996 ± 0.015
61 | TGTGGCAACG | 0.974 ± 0.032
62 | TGTGGGGCC | 1.04 ± 0.03
63 | CAAAGGGGAT | 0.99484 ± 0.00073
64 | ATGTGGGGCC | 0.995 ± 0.042
65 | TTTTTTTTTA | 1.01 ± 0.022
66 | GTCAAAAATT | 0.987 ± 0.01
67 | GTATGGATGT | 1.007 ± 0.0043
68 | TCCGGCGGTG | 1.03 ± 0.027
69 | TATTATAATA | 0.98 ± 0.035
70 | TCGGTTGTTG | 1.01 ± 0.013
71 | TTAAGGCCAT | 1.08 ± 0.13
72 | GGCAGGGGGG | 1.04 ± 0.056
73 | AATTAGCTGC | 1.04 ± 0.043
74 | ATGAAAATTA | 0.975 ± 0.025
75 | TTTATAGCGG | 0.996 ± 0.015

Row | Sequence | switch fluorescence ratio
76 | GTTACATGCG | 0.976 ± 0.02
77 | TTTAAAGCAG | 1.01 ± 0.02
78 | CCGGGAAGGC | 2.043 ± 0.0097
79 | CGTCAGAGCG | 0.9802 ± 0.008
80 | CGAAGTTATA | 1.19 ± 0.038
81 | TAGCTAGATG | 1.02 ± 0.022
82 | ATGGCAAAAG | 1.01 ± 0.045
83 | GCGTAAATTG | 0.9923 ± 0.0053
84 | GCGCGGTGGC | 1.09 ± 0.015
85 | CAATAGGAGA | 0.981 ± 0.028
86 | TTTAGCAGGG | 1.01 ± 0.026
87 | TGGGCCTTGT | 1.023 ± 0.0033
88 | CTGTTGGGTT | 0.997 ± 0.016
89 | AATGGTGTAC | 1.03 ± 0.011
90 | GGGATATAAT | 1.02 ± 0.022
91 | TTTGGCCCCT | 1 ± 0.03
92 | ATTAAAGGGC | 0.992 ± 0.013
93 | ATCTGAATGG | 1.12 ± 0.17
94 | TTATGTAGTA | 1 ± 0.019
95 | CTCTAATTTT | 1.013 ± 0.0052
96 | TGACTTATGG | 0.983 ± 0.08
97 | TGCGCTTATA | 1.09 ± 0.015
98 | GAGGCACGG | 1.0469 ± 0.00025
99 | ATTGGGTTTC | 0.982 ± 0.021
100 | AAAAATGTTG | 1 ± 0.053

Row | Sequence | switch fluorescence ratio
101 | AGTAGTTATA | 1.03 ± 0.093
102 | AAAATCTGCG | 1.03 ± 0.041
103 | AAGGGATCTG | 0.9763 ± 0.0069
104 | AGGGGGAGGC | 1.01 ± 0.076
105 | CGGTAGTCGG | 1.03 ± 0.027
106 | GGAGTGCCGT | 1 ± 0.093
107 | GGGCAATGCT | 3.33 ± 3.1
108 | ATGGGGAGTT | 0.972 ± 0.022
109 | CCGTTGAGGG | 1.01 ± 0.086
110 | TAGTTTGGGT | 0.974 ± 0.012
111 | GACCACTATC | 1.1 ± 0.02
112 | TTTTTTCATC | 1.031 ± 0.0078
113 | GTTAGATGGT | 0.9851 ± 0.0037
114 | AGGTTTAGTC | 0.9945 ± 0.0026
115 | AGTGAAAATG | 1.05 ± 0.029
116 | TTATCAGCAC | 1.136 ± 0.0044
117 | TGGGATAGTG | 1 ± 0.046
118 | TTTAAAGTTG | 1.05 ± 0.04
119 | GGGGGCCATA | 1.14 ± 0.18
120 | CCATGAGTGT | 0.997 ± 0.032
121 | GTGTTTGTTC | 0.968 ± 0.013
122 | CGGGGATGGG | 0.992 ± 0.022
123 | GGGGCAATTT | 1.04 ± 0.052
124 | TATCAATTTT | 1 ± 0.03
125 | ATGGCATCGG | 1.005 ± 0.0035

Row | Sequence | switch fluorescence ratio
126 | AAAGAAATTC | 1.02 ± 0.068
127 | CATTTTAGTG | 1 ± 0.0021
128 | TGGGGGGGCA | 1 ± 0.012
129 | TGAATATATG | 1.02 ± 0.032
130 | TTGGGGGGCG | 1.01 ± 0.073
131 | CGTACCAGGG | 1.32 ± 0.036
132 | ATTGAGCAAA | 1.11 ± 0.056
133 | CGTACAGCAG | 1.01 ± 0.054
134 | GTAAGTATGT | 1.01 ± 0.011
135 | TAGGCTAGGC | 0.971 ± 0.022
136 | GATGGATGGG | 1.019 ± 0.0069
137 | TATCCGACAT | 1.15 ± 0.039
138 | AGGAAGGGTG | 1.04 ± 0.022
139 | ACAGTCTGTT | 1.01 ± 0.048
140 | GGTTTCGGGT | 0.984 ± 0.0011
141 | GTTTTTACCT | 1.21 ± 0.19
142 | ACTAAAGACA | 1.0077 ± 0.00019
143 | TTAAAGTCTC | 0.946 ± 0.021
144 | ATAGTCAGTA | 1.01 ± 0.019
145 | ACAGGGTCG | 0.948 ± 0.025
146 | TGTTTTGTGT | 1.035 ± 0.0073
147 | ACGCAGGCTT | 1.05 ± 0.011
148 | GAGTATTTAG | 0.9801 ± 0.0093
149 | ATGCAATGCT | 3.19 ± 0.18
150 | AGTAAAAGCG | 1.04 ± 0.017

Row | Sequence | switch fluorescence ratio
151 | CTTTAAGCTT | 0.9981 ± 0.0027
152 | TTTTAGGCTG | 0.961 ± 0.027
153 | ATTTGTGGGA | 1 ± 0.029
154 | AGGAATTCGG | 0.999 ± 0.017
155 | TGCGTCAACT | 1.01 ± 0.023
156 | AGATGCAGCT | 0.976 ± 0.033
157 | AGGCGGAAGT | 1.014 ± 0.0031
158 | AGAGCAGTGT | 1.01 ± 0.014
159 | ATCCGAACGG | 1.03 ± 0.048
160 | GCAATCGAGT | 1.6 ± 0.04
161 | GAAGGGTATT | 1.01 ± 0.026
162 | GGCTTCTGCT | 0.959 ± 0.022
163 | TTAAGATTTC | 1.13 ± 0.14
164 | CTCTTTACGG | 1 ± 0.04
165 | CGGGACGGAG | 0.997 ± 0.11
166 | AAAGAGGTTC | 1.04 ± 0.068
167 | ATCGGGTTTG | 0.977 ± 0.03
168 | ATGGGGGGCT | 0.987 ± 0.028
169 | AAGTATTTCG | 0.9995 ± 0.0062
170 | ATATAAAATG | 0.986 ± 0.0046
171 | TGAATCGGGA | 0.99 ± 0.011
172 | TTGTTTTCGG | 0.961 ± 0.02
173 | CCAACGGGCA | 1.08 ± 0.031
174 | GCAAAGTCTG | 0.984 ± 0.046
175 | TTCCGTCTTC | 1.09 ± 0.11

Row | Sequence | switch fluorescence ratio
176 | CGCTGGGGTT | 0.9962 ± 0.0047
177 | CGGTTTGCAG | 0.972 ± 0.043
178 | GGGGGTGCTT | 1.03 ± 0.056
179 | ACCGGCTGCG | 1.08 ± 0.08
180 | ACAATGTGTG | 0.985 ± 0.038
181 | GAGTTGAGAT | 0.9871 ± 0.007
182 | GCCAGTAATA | 1.1 ± 0.034
183 | CCGGGTGTTT | 1.63 ± 0.75
184 | TGGTAGCTGT | 1.01 ± 0.062
185 | CGGAGGGGCC | 1.02 ± 0.033
186 | ATTTCAGTAG | 1.016 ± 0.0019
187 | ACGTGGGTCT | 1.01 ± 0.028
188 | GGGTAACGGT | 0.9802 ± 0.0045
189 | CTGTCTTGA | 1 ± 0.038
190 | GAGTTCCGGG | 1.01 ± 0.024
191 | AGGGAAAGGT | 1.06 ± 0.05
192 | CCGTTTAAAA | 1.11 ± 0.15
193 | GGCTGGAAAC | 1.23 ± 0.22
194 | GCAATAGACT | 1.51 ± 0.04
195 | AAAGGTTAAG | 0.991 ± 0.015
196 | ATTGGGCGCT | 0.99269 ± 2.5e-05
197 | CAGATTTAGC | 0.9728 ± 0.0068
198 | GGCGTTTTCG | 0.997 ± 0.044
199 | TGTGTGTTTT | 1.01 ± 0.027
200 | GATTTTGCAT | 1 ± 0.028
